Laboratory results published in patent publication US20240124586A1 (WUXI BIOLOGICS IRELAND, published 2024).
Like-named read-outs stand apart in the source and are kept apart here.

Tests used:
[1] = biological target: T1, human PD-1 on engineered CHO-S cells (W305-CHO-S.hPro1.C6) (human, UniProt Q15116 25-288); experiment: FACS binding to human PD-1 engineered cells
T1 construct: whole, on cells; also called human PD-1 engineered cells; PD-1+ cells
Description: Engineered human PD-1 expressing cells W305-CHO-S.hPro1.C6 were seeded at 1×10⁵ cells/well in U-bottom 96-well plates (COSTAR 3799). Antibodies with 3.16-fold titration in 1% BSA DPBS from 200 nM to 0.002 nM were added to the cells. The plates were incubated at 4° C. for 1 hour. After wash, […] 1:125 diluted PE-labeled goat anti-human antibody (Jackson 109-115-098) was added to each well and the plates were incubated at 4° C. for 1 hour. The binding of the antibodies onto the cells was tested by flow cytometry and the mean fluorescence intensity (MFI) was analyzed by FlowJo.

[2] = biological target: T2, human CTLA-4 on engineered 293F cells (W316-293F.hPro1.FL) (human, UniProt P16410 36-223); experiment: FACS binding to human CTLA-4 engineered cells
T2 construct: whole, on cells; also called human CTLA-4 engineered cells; CTLA-4+ cells
Description: (§1) 3.16-fold titrated Abs with 1% BSA DPBS from 200 nM to 0.002 nM were added to the cells. Plates were incubated at 4° C. for 1 hour. After wash, […] 1:150 diluted PE-labeled goat anti-human antibody (Jackson 109-115-098) was added to each well and the plates were incubated at 4° C. for 1 hour. The binding of the antibodies onto the cells was tested by flow cytometry and the mean fluorescence intensity (MFI) was analyzed by FlowJo.

[3] = biological target: T1, human PD-1 on engineered CHO-S cells …; experiment: ELISA binding to human PD-1 (legend says 'engineered cells'; the form of the antigen in the ELISA is not described)
[4] = biological target: T2, human CTLA-4 on engineered 293F cells …; experiment: ELISA binding to human CTLA-4 (legend says 'engineered cells'; the form of the antigen in the ELISA is not described)
[5] = biological target: T3, human CD19 on CD19+ B cell lines (Ramos, Raji) (human, UniProt P15391 20-556); experiment: FACS on CD19+ Ramos cells
T3 construct: whole, on cells; also called CD19+ Ramos cells; CD19+ Raji cells
T3 sequence (looked up): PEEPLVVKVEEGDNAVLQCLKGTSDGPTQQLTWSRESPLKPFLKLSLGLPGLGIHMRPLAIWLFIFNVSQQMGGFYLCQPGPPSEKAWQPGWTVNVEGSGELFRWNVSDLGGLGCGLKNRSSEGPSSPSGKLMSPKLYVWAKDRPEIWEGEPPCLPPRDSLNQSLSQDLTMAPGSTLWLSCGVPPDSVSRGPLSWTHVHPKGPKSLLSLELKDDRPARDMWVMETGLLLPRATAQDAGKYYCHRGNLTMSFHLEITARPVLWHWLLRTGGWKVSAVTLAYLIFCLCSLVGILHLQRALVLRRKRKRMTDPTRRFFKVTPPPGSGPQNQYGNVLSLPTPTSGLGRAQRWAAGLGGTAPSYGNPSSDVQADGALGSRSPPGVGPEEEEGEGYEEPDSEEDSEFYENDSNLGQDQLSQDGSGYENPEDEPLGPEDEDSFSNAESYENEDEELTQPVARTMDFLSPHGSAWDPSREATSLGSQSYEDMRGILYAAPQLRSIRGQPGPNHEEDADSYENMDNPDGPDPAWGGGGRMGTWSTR

[6] = biological target: T3, human CD19 on CD19+ B cell lines …; experiment: FACS on CD19+ Ramos cells; remark: listed apart in the source
[7] = biological target: T4, cynomolgus CTLA-4 on engineered 293F cells (W316-293F.cynoPro1.F1.Pool) (cynomolgus); experiment: FACS binding to cynomolgus CTLA-4 engineered cells
T4 construct: whole, on cells; also called cynomolgus CTLA-4 engineered cells
Description: as §1, with “4-fold” for “3.16-fold”, “40 μg/ml” for “200 nM”, “0.00004 μg/ml” for “0.002 nM”

[8] = biological target: cynomolgus CTLA-4 protein (cynomolgus, UniProt G7PL88 36-161, Probably biotinylated for streptavidin-PE detection, as described for the human CTLA-4 reagent in paragraph 775; the letters cannot carry this.); experiment: FACS competition: blocks cynomolgus CTLA-4 protein binding to human CD80 engineered cells
Description: (§2) Competitive FACS was used to test whether the antibodies could block human or cynomolgus CTLA-4 binding to hCD80 on cell surface. […] Then the mixtures of antibody and CTLA-4 were added to the cells and incubated for 1 hour at 4° C. The cells were washed two times with 200 μl FACS washing buffer (DPBS containing 1% BSA). Streptavidin PE (BD Pharmingen-554061) 1 to 600 diluted in FACS buffer was added to the cells and incubated at 4° C. for 1 hour. Additional washing steps were performed two times with 200 μL FACS washing buffer followed by centrifugation at 1500 rpm for 4 minutes at 4° C. Finally, the cells were resuspended in 100 μL FACS washing buffer and fluorescence values were measured by flow cytometry and analyzed by FlowJo.

[9] = biological target: T5, biotinylated human CTLA-4.ECD.hFc (W316-hPro1.ECD.hFc.Biotin) (human, UniProt P16410 36-161, biotin-labelled (site not stated)); experiment: FACS competition: blocks biotinylated human CTLA-4.ECD.hFc binding to human CD80 engineered cells
T5 construct: extracellular domain; In-house protein; also called hCTLA-4.ECD.hFc-Biotin; human CTLA-4 protein
Description: as §2

[10] = biological target: T6, human CD3 on CD3+ Jurkat cells (human, UniProt P07766 23-207; P09693 23-182; P04234 22-171); experiment: FACS on CD3+ Jurkat cells
T6 construct: whole, on cells; also called CD3 positive Jurkat cells

[11] = biological target: T6, human CD3 on CD3+ Jurkat cells; experiment: FACS on CD3+ Jurkat cells; remark: listed apart in the source
[12] = biological target: T6, human CD3 on CD3+ Jurkat cells; experiment: FACS on CD3+ Jurkat cells; remark: listed apart in the source

T6 sequence (P07766 23-207, chain 1 of 3): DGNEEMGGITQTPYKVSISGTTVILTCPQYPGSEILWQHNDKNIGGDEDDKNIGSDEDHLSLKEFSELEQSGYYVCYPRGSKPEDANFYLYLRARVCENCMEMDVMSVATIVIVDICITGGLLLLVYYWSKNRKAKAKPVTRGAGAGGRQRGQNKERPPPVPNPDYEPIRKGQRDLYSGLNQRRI
T6 sequence (P09693 23-182, chain 2 of 3): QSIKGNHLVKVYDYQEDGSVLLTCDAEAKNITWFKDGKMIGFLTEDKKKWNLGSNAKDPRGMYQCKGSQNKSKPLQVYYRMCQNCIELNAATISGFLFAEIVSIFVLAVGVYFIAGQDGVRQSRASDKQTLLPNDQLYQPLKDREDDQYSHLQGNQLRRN
T6 sequence (P04234 22-171, chain 3 of 3): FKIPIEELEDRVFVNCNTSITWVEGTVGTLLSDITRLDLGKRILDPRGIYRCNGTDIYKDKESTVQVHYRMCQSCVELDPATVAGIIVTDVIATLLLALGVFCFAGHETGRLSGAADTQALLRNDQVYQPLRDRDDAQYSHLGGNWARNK
T2 sequence (P16410 36-223, change not shown): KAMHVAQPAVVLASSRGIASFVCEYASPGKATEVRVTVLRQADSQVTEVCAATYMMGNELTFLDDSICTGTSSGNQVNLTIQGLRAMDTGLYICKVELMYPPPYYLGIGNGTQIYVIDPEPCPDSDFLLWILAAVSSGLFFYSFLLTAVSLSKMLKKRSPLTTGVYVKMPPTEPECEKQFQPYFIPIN
T1 sequence (Q15116 25-288, change not shown): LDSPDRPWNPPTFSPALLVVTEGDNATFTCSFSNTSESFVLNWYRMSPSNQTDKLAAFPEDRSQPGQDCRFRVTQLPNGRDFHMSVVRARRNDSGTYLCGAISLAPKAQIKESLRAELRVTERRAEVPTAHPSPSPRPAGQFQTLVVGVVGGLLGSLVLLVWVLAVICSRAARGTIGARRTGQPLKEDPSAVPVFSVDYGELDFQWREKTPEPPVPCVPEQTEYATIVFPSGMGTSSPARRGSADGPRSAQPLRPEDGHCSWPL
T5 sequence (P16410 36-161): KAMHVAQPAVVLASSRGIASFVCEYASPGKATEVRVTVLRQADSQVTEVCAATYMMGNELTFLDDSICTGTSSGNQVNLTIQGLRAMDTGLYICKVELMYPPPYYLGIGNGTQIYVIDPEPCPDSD
Chain of cynomolgus CTLA-4 protein (G7PL88 entry or part of it limits assumed): as the sequence (P16410 36-161) above, with S14N, I18T, L106M counted along it

B1: U6T4.G26.IgG4, bispecific anti-PD-1 x CTLA-4 (bispecific antibody)
chain: EVQLLESGGGLVQPGGSLRLSCAASGFTFSSHAMSWVRQAPGKGLEWVSTITGGGGSIYYADSVKGRFTISRDNSKNTLYLQMNSLRAEDTAVYYCAKNRAGEGYFDYWGQGTLVTVLEDLKNVFPPEVAVFEPSEAEISHTQKATLVCLATGFYPDHVELSWWVNGKEVHSGVCTDPQPLKEQPALQDSRYALSSRLRVSATFWQNPRNHFRCQVQFYGLSENDEWTQDRAKPVTQIVSAEAWGRGGGGSGGGGSDIVMTQTPLSLSVTPGQPASISCRSSQSLLNSDGNTYLYWYLQKPGQSPQLLIYLVSKLGSGVPNRFSGSGSGTDFTLKISRVEAEDVGVYYCVQGTHDPWTFGGGTKVEIKRTVAAPSVFIFPPSDEQLKSGTASVVCLLNNFYPREAKVQWKVDNALQSGNSQESVTEQDSKDSTYSLSSTLTLSKADYEKHKVYACEVTHQGLSSPVTKSFNRGEC
light: SYELTQPLSVSVALGQTARITCGGDNIGNKDVHWYQQKPGQAPVLVIYRDSNRPSGIPEGFSGSNSGNTATLTISRAQAGDEADYYCQVWDSIWVFGGGTKLTVLPDIQNPDPAVYQLRDSKSSDKSVCLFTDFDSQTQVSQSKDSDVYITDKCVLDMRSMDFKSNSAVAWSQKSDFACANAFQNSIIPEDTFFPSPESS
heavy: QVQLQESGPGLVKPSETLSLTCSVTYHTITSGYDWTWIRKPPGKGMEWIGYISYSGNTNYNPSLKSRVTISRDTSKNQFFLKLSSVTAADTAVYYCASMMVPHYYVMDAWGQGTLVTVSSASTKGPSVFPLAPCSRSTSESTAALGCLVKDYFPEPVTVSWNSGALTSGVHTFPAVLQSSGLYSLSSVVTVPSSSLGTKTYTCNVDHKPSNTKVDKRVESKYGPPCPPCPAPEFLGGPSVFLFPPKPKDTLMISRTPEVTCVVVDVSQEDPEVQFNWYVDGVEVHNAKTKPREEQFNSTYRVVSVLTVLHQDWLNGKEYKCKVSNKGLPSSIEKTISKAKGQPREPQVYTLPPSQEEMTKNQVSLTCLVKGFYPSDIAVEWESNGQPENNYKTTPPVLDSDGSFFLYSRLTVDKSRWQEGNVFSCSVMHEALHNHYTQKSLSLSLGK
notes: Light-heavy crossed chimeric Fab; first chain is U6-HC fused to T4-LC; also called U6T4 antibody pair in G26 format
Question: With B1 as the binder, how does the EC50 [1] read?
Answer: 1840 pM

Question: And the EC50 [2]?
Answer: 59800 pM

Question: And the EC50 [3]?
Answer: 102 pM

Question: And the EC50 [4]?
Answer: 177 pM

B2: anti-CD19 antibody U4 (wild type) (antibody, V domains shown)
VH: QMQLVQSGPEVKKPGTSVKVSCKASGYAFTSYNMYWVRQARGQRLEWIGYIDPYNGDTTYNQKFKGRVTITRDMSTSTAYMELSSLRSEDTAVYYCLTTAYAMDYWGQGTLVTVSS
VL: DIQLTQSPSFLSASVGDRVTITCSASSTVNYMHWYQQKPGKAPKLLIYSTSNLASGVPSRFSGSGSGTEFTLTISSLQPEDFATYYCHQWSSYPYTFGQGTKLEIKR
notes: also called native U4; wild type antibody U4
Question: Which “EC50 (read off the curve)” value [5] does the source give for B2 here?
Answer: ~500 pM

Question: And the “EC50 (read off the curve)” value [6]?
Answer: ~300 pM

B3: W3162_1.154.8-z35-IgG1K (antibody, V domains shown)
VH: QVQLVQSGAEVKKPGSSVKVSCKASGYTFTNYFMNWVRQAPGQGLEWMGRVDPEQGRADYAEKFKKRVTITADKSTSTAYMELSSLRSEDTAVYYCARRAMDNYGFAYWGQGTLVTVSS
VL: EIVLTQSPDFQSVTPKEKVTITCSANSALSYMYWYQQKPDQSPKLWVHGTSNLASGVPSRFSGSGSGTDFTLTINSLEAEDAATYYCHHWSNTQWTFGGGTKVEIK
notes: anti-CTLA-4 antibody, parent of the T5 arm; also called W3162_1.154.8-z35 (named T5)
Question: B3 was tested. Which EC50 [7] did it give?
Answer: 699 pM

Question: And the “Top(MFI)” value [7]?
Answer: 10800 MFI

Question: What about the IC50 [8] of the same binder?
Answer: 1470 pM

Question: What about the IC50 [9] of the same binder?
Answer: 594 pM

B4: anti-CD3 antibody T3 (wild type, IgG1) (antibody, V domains shown)
VH: QVQLVQSGAEVKKPGSSVKVSCKASGFAFTDYYIHWVRQAPGQGLEWMGWISPGNVNTKYNENFKGRVTITADKSTSTAYMELSSLRSEDTAVYYCARDGYSLYYFDYWGQGTLVTVSS
VL: DIVMTQSPDSLAVSLGERATINCKSSQSLLNSRTRKNYLAWYQQKPGQPPKLLIYWASTRQSGVPDRFSGSGSGTDFTLTISSLQAEDVAVYYCTQSHTLRTFGGGTKVEIK
notes: Human IgG1; also called T3-IgG1; native antibody T3
Question: Which results are given for B4?
Answer: EC50 (read off the curve) [10]: ~200 pM; EC50 (read off the curve) [11]: ~200 pM

B5: T3-IgG4 (antibody, V domains shown)
VH: B4 VH
VL: B4 VL
notes: m1 is the IgG1 form of the same antibody; also called wild type anti-CD3 antibody T3 in IgG4 format
Question: B5 was tested. Which “EC50 (read off the curve)” value [12] did it give?
Answer: ~50 pM
